Tested on: anti-BCMA CARs
Test: Binding of BCMA-Fc fusion protein to CAR-expressing T cells (flow cytometry)
Procedure: The clone encoding the human BCMA-Fc fusion construct with the N-terminal CD33 leader sequence (SEQ ID NO: 21) was inserted into an expression vector and expressed in HEK 293 cells. The resulting BCMA-Fc fusion protein was determined to have a purity of greater than 95% as assessed by gel permeation chromatography.

B1: BCMA-Fc fusion protein: extracellular domain of human BCMA and a human IgG1 Fc connected with a linker (SEQ ID NO: 22) (protein)
chain: MPLLLLLPLLWAGALAMLQMAGQCSQNEYFDSLLHACIPCQLRCSSNTPPLTCQRYCNASVTNSVKGTNAGGGGSPKSSDKTHTCPPCPAPEAEGAPSVFLFPPKPKDTLMISRTPEVTCVVVDVSHEDPEVKFNWYVDGVEVHNAKTKPREEQYNSTYRVVSVLTVLHQDWLNGKEYKCKVSNKALPSSIEKTISKAKGQPREPQVYTLPPSRDELTKNQVSLTCLVKGFYPSDIAVEWESNGQPENNYKTTPPVLDSDGSFFLYSKLTVDKSRWQQGNVFSCSVMHEALHNHYTQKSLSLSPGK
modifications: BCMA-Fc construct
Question: B1 was tested. Which “binding to anti-BCMA CAR expressing T cells” value did it give?
Answer: specifically bound

Source: patent publication US20250186503A1, “METHODS AND COMBINATIONS FOR TREATMENT AND T CELL MODULATION” (Juno Therapeutics, Inc., priority 2018, published 2025)
